Laboratory results reported in patent US9360484B2, “Anti-FcRH5 antibodies and immunoconjugates and methods of use” (Genentech, Inc., priority 2009, dated 2016).

T1: human FcRH5 (Homo sapiens, UniProt Q96RD9)
T1 construct: vectors that expresses the His-tagged extra-cellular domain (ECDs) of the FcRH5/IRTA2 into CHO cells; His tag (HIS6); made in house; host or cells: CHO cells (transient transfection)
T1 sequence (Q96RD9 16-851 limits assumed): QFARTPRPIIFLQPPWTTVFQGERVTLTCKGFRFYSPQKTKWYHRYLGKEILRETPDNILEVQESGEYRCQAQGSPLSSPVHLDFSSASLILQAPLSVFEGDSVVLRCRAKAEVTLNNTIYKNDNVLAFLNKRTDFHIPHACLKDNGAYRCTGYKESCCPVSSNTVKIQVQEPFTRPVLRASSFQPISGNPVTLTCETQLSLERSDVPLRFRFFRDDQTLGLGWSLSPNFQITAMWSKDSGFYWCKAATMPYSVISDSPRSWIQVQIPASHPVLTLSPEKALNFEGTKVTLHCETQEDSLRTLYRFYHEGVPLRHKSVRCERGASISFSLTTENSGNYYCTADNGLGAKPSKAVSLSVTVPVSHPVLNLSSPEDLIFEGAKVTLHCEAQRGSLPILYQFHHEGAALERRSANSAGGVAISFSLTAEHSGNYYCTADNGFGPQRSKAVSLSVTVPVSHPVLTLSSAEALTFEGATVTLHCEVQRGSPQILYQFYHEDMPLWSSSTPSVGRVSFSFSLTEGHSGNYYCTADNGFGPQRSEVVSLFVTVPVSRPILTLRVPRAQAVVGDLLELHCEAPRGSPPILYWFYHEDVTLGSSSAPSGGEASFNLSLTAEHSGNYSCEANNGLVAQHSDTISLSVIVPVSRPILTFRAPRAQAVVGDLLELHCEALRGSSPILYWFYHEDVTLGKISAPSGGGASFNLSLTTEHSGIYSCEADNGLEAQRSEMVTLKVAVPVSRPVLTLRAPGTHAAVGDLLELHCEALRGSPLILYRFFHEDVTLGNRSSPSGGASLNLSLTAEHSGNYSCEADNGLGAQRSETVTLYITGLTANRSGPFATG

T2: human FcRH5 (Homo sapiens, UniProt Q96RD9, G418D/L733P/S890P/V466I/Y267H)
T2 construct: expressed in transfected cells; host or cells: OPM2 multiple myeloma cells
T2 sequence (Q96RD9 16-977 Y267H/G418D/V466I/L733P/S890P): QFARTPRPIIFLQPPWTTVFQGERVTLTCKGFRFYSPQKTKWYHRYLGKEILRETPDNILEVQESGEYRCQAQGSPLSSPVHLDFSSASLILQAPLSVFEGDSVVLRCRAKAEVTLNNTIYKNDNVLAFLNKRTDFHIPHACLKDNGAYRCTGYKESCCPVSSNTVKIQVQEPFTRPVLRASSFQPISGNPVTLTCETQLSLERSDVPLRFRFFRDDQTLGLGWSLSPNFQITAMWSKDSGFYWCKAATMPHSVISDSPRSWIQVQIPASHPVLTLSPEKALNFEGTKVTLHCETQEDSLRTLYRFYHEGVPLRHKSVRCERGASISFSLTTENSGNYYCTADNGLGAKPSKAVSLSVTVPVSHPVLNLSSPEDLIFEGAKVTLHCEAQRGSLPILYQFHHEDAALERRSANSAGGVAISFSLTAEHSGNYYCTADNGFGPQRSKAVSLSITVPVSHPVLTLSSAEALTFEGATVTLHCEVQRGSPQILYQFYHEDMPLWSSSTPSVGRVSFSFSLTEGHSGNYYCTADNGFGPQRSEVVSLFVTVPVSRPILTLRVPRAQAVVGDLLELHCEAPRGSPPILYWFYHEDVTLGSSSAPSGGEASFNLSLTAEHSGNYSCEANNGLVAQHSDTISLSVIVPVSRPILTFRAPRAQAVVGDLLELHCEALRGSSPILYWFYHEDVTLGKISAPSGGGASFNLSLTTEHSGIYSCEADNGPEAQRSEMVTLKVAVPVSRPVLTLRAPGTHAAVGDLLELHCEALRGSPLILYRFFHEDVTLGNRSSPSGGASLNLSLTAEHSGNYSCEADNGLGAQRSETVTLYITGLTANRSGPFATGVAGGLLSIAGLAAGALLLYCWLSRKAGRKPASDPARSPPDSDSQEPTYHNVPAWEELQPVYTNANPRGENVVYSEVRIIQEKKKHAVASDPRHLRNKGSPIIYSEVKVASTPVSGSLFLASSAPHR


How the values were obtained:
human FcRH5 [1] = molecular target: T1, human FcRH5; test: Affinity determination (Biacore analysis) of murine anti-FcRH5 IgGs; conditions: murine IgG captured on chip, 25° C., 1:1 Langmuir binding model; read-out: Affinity (Biacore) to Hu antigen
Protocol: The FcRH-binding affinities of IgGs were calculated from association and dissociation rate constants measured using a Biacore 2000 surface plasmon resonance system (BIAcore, Inc.). A biosensor chip was activated for covalent coupling of either anti-murine IgG (BR-1008-338) using N-ethyl-N′-(3-dimethyaminopropyl)-carbodiimide hydrochloride (EDC) and N-hydroxysuccinimide (NHS) according to the supplier's instruction (BIAcore, Inc.). Briefly, for each cycle of kinetic analysis, 5 ul of 100 nM IgG was captured on the chip, two-fold serial dilution of various FcRHs were injected at a flow rate of 20 ul/min for 150 sec. Antigen dissociation was monitored for 180 sec before regeneration. Equilibrium dissociation constants at 25° C. were calculated by fitting the data with a 1:1 Langmuir binding model. Running buffer was PBS with 0.05% Tween −20. All the antibodies bound antigen with sufficient affinity to be used as a therapeutic.

cynomolgus FcRH5 = test: Cyno cross-reactivity by FACS on stably transfected cells (SVT2 cells expressing cynoFcRH5); type: binding, cynomolgus monkey; conditions: 1.0, 0.1 or 0.01 μg antibody per million SVT2 cells stably expressing cynoFcRH5
cynomolgus FcRH5, sequence (as listed by the source): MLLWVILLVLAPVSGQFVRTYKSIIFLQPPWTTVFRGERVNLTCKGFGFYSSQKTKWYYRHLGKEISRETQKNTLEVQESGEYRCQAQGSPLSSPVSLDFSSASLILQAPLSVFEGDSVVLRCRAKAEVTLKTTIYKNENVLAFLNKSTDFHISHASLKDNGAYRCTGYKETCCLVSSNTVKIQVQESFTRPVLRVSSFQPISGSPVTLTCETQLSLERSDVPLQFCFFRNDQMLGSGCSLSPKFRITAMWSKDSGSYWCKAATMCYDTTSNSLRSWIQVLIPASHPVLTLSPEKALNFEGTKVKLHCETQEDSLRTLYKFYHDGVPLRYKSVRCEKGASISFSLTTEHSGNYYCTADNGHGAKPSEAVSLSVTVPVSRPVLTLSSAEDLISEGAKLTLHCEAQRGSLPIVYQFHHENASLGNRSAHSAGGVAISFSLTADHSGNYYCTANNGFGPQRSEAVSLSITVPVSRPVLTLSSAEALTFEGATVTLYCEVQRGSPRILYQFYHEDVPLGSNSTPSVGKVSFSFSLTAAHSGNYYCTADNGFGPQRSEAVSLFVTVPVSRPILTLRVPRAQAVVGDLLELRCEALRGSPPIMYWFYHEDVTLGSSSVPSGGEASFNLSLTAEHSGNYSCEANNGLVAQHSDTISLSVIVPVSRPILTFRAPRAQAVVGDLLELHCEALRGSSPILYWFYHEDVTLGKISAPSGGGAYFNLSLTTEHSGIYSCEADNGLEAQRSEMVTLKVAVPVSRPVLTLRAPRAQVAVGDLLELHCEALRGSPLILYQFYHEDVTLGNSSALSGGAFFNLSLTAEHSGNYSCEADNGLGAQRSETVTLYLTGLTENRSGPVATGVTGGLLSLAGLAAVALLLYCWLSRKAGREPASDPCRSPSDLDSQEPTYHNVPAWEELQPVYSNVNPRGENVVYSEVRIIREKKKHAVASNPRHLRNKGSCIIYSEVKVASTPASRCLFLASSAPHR
Protocol: For additional FACS analysis of FcRH5 antibodies, 1.0 μg, 0.1 μg or 0.01 μg of antibody was titrated per million cells of BJAB cells stably expressing huFcRH5 and SVT2 cells stably expressing cynoFcRH5. Briefly, approximately 10^6 cells in 100 μl were incubated with varying amounts (1.0 ug, 01. ug or 0.01 ug) of murine Ab mu1H4, mu6H1, mu7D11, mu9E2, mu10A8, mu10F5, or mu13G9 per million cells of BJAB cells stably expressing huFcRH5 and SVT2 cells stably expressing cynoFcRH5. Incubation with 1.0 ug/10^6 cells of the appropriate Mu IgG isotype control was used as a negative control. PE conjugated Rat anti-MuIgG1 or Rat anti-MuIgG2a+b was used as the secondary detection antibody.

human FcRH1-6 = test: FACS cross-reactivity analysis on SVT2 cells stably expressing gD tagged huFcRH1-6; type: binding; conditions: 1.0 ug Ab (or 100 μl hybridoma supernatant) per 10^6 SVT2 cells expressing gD tagged huFcRH1-6
Protocol: To determine the cross-reactivity of FcRH5 antibodies, binding of IgG variants to SVT2 cells, expressing human FcRH1-6 were analyzed using FACS analysis.
Briefly, approximately 10^6 cells of SVT2 cells stably expressing gD tagged huFcRH1-6 in 100 μl were incubated with 1.0 ug of murine or chimeric Ab [Mu anti-gD (positive control), Mu anti-FcRH5 (1H4) (“mu1H4”), Mu anti-FcRH5 (4D10) (“mu4D10”), Mu anti-FcRH5 (6H1) (“mu6H1”), Mu anti-FcRH5 (7D11) (“mu7D11”), Ch anti-FcRH5 (7D11) (“ch7D11”), Mu anti-FcRH5 (8116) (“mu8H6”), Mu anti-FcRH5 (9E2) (“mu9E2”), or Mu anti-FcRH5 (13G9) (“mu13G9”)]. Incubation of SVT2 cells stably expressing the empty vector was incubated with the same antibodies and used as a negative control. PE conjugated Rat anti-MuIgG1, Rat anti-MuIgG2a+b, or Mu anti-HuIgG was used as the secondary detection antibody.
To further determine the cross-reactivity of FcRH5 antibodies, binding of IgG variant supernatants to SVT2 cells, expressing human FcRH1-6 were analyzed using FACS analysis.
Briefly, approximately 10^6 cells of SVT2 cells stably expressing gD tagged huFcRH1-6 were incubated with 1.0 μg purified Ms anti-gD antibody or 100 μl (concentration unknown) of murine Ab hybridoma supernatant (Mu anti-FcRH5 (10A8) (“mu10A8”), Mu anti-FcRH5 (10F5) (“mu10F5”)). […]

human FcRH5 [2] = molecular target: T2, human FcRH5; test: Affinity determination (Scatchard analysis) on cells expressing human FcRH5; type: binding; conditions: by FACS and Scatchard analysis
Protocol: To further determine binding of the FcRH5 murine antibodies and IgG clones, binding of iodinated IgG variants to OPM2 cells expressing human FcRH5 and SVT2 cells expressing cynomologous FcRH5, Scatchard analysis was performed.
After a four hour incubation at 4° C., cells were washed and cell pellet counts were read by a gamma counter (1470 WIZARD Automatic Gamma Counter; Perkin Elmer, Walthem, Mass.). All points were done in triplicate and counted for 10 minutes. The average CPM was used for Kd calculation using the New Ligand (Genentech, South San Francisco, Calif.) program.

[3] = tested on: OPM2.CMV.PD.FcRH5.5P.2 cells; test: In vitro cell proliferation assay (CellTiter-Glo Luminescent Cell Viability Assay); type: cell-based, human; conditions: OPM2.CMV.PS.FcRH5.5P.2 cells, 3 days incubation
Description: The homogeneous “add-mix-measure” format results in cell lysis and generation of a luminescent signal proportional to the amount of ATP present. The substrate, Beetle Luciferin, is oxidatively decarboxylated by recombinant firefly luciferase with concomitant conversion of ATP to AMP and generation of photons. Viable cells are reflected in relative luminescence units (RLU). Data can be recorded by luminometer or CCD camera imaging device. […] Alternatively, photons from luminescence can be counted in a scintillation counter in the presence of a scintillant.
3. The plates were equilibrated to room temperature for approximately 30 minutes.
5. The contents were mixed for 2 minutes on an orbital shaker to induce cell lysis.
6. The plate was incubated at room temperature for 10 minutes to stabilize the luminescence signal.

Molecule	Kd (human FcRH5 [1]) [nM]	cross reaction with cynomolgus FcRH5 by FACS analysis (cynomolgus FcRH5)	specificity of binding among huFcRH1-6 by FACS (human FcRH1-6)	relative binding affinity of humanized version 1 and the chimera (human FcRH5 [2])	in vitro cell growth inhibition (in words) [3]
13G9: murine monoclonal antibody binding human FcRH5 (antibody, V domains shown) VH: EVQLVQSGPELKKPGETVKISCKASGYTFTNYGMNWVKQAPGKGLKWMGWVNTYTGEPTYTDDFKGRFAFSVETSASTVFLQINNLKNEDTATYFCARRSIPYYYAMDYWGQGTSLT VL: DIVMTQSQKIMSTSVGDRVNVTCKASQNVGSNVAWYHQKPGQSPKALIYSASYRYSGVPDRFTGSGSGTDFTLTISNVQSEDLAEYFCQQYKTWTFGGGTKLEIKR	19	cross react with cynomolgus FcRH5	–	–	–
10A8: murine anti-FcRH5 monoclonal antibody, light chain variable domain SEQ ID NO: 18, heavy chain variable domain SEQ ID NO: 20 (antibody, listed as Mus musculus, V domains shown, Variable Domain of Heavy Chain of Humanized Antibody (mu10A8)) VH: EVQLVESGGGLVKPGGSLKISCAASGFTFSSYAVSWVRQTPEKRLEWVATISSGGSLTFYLDSVRGRFTISRDNAKNTLYLQMSSLRSEDTAMYYCARPIPDYYALDYWGQGTSVTVSS VL: DIVMTQSHKFMSTSVRDRVSITCKASQDVSTAVAWYQQKPGQSPKLLIYSASYRYTGVPDRFTGSGSGTDFTFTISSVQAEDLAVYYCQQHFSSPRTFGGGTKVEIKR	–	cross react with cynomolgus FcRH5	specifically bind FcRH5	–	–
hu10A8 v1: humanized 10A8 antibody, variable domains SEQ ID NO: 19 and SEQ ID NO: 21 (antibody, V domains shown) VH: EVQLVESGGGLVQPGGSLRLSCAASGFTFSSYAVSWVRQAPGKGLEWVATISSGGSLTFYLDSVRGRFTISRDNSKNTLYLQMNSLRAEDTAVYYCARPIPDYYALDYWGQGTLVTVSS VL: DIQMTQSPSSLSASVGDRVTITCKASQDVSTAVAWYQQKPGKAPKLLIYSASYRYTGVPSRFSGSGSGTDFTLTISSLQPEDFATYYCQQHFSSPRTFGQGTKVEIKR	–	–	–	equivalent to the chimera	no in vitro cell growth inhibition
